This passage reports EC50, growth activity of VEGF on HUVEC (CCK-8, endothelial cell growth assay) and inhibitory activity against VEGF (HUVEC growth assay) results from patent publication US20100331250A1.

For assay [1], the target named is human VEGF165 (human) (UniProt P15692). In words: quantitative ELISA; serial concentrations of fusion protein mixed with 40 pM human VEGF165, detection with anti-human IgG Fc-HRP.
Assay [2] has the same target. Nature of the assay: cell-based or functional assay.

Chain of UniProt P15692 (P15692 other isoform, or with tags, fused parts or gaps limits assumed): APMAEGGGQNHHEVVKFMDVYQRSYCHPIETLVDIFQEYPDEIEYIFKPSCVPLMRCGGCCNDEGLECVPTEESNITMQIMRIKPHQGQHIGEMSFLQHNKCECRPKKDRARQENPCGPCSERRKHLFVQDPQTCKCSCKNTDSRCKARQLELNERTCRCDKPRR

Turning to VEGF-Trap (Fc fusion), the EC50 in the assay with human VEGF165 (human) [1] was found to be 0.136 µg/mL. In the assay with human VEGF165 (human) [2], this substance yielded a growth activity of VEGF on HUVEC (CCK-8, endothelial cell growth assay) of 28 pM and an inhibitory activity against VEGF (HUVEC growth assay) of 14 pM.
